Patent US20180030151A1 (MOGAM INSTITUTE FOR BIOMEDICAL RESEARCH, published 2018)
Residue numbers refer to the chain shown, from its start. Blank lines part the entries; values can stand above or below the binder they belong to.

Legend:
[1] = target: T1, recombinant human TFPI (tissue factor pathway inhibitor) (human, UniProt P10646 29-304); test: cell-based or functional assay
[2] = target: T1, recombinant human TFPI (tissue factor …); test: cell-based or functional assay; remark: listed apart in the source
[3] = target: T1, recombinant human TFPI (tissue factor …); test: cell-based or functional assay; remark: listed apart in the source
[4] = target: T1, recombinant human TFPI (tissue factor …); test: cell-based or functional assay; remark: listed apart in the source
[5] = target: T1, recombinant human TFPI (tissue factor …); test: SPR, Biacore T-200; IgG captured on protein A (CM5), TFPI as analyte
Procedure: Dissociation of the TFPI associated with the antibody was induced by running 10 mM glycine-HCl (pH 1.5) at a flow rate for 30 seconds. The affinities in terms of kinetic rate constants (Kₒₙ and Koff) and equilibrium dissociation constant (KD) were evaluated using Biacore T-200 evaluation software, and the results are shown in Table 24 below.

effect of inhibiting TFPI, FXa activity assay, Ab 10 nM [1]: ~82%
effect of inhibiting TFPI, FXa activity assay, Ab 20 nM [1]: ~82%
A405, TF/FVIIa/FX complex assay, Ab 1.56 nM [2]: 0.041
A405, TF/FVIIa/FX complex assay, Ab 3.13 nM [2]: 0.048
A405, TF/FVIIa/FX complex assay, Ab 6.25 nM [2]: 0.067
A405, TF/FVIIa/FX complex assay, Ab 12.5 nM [2]: 0.097
A405, TF/FVIIa/FX complex assay, Ab 25 nM [2]: 0.489
A405, TF/FVIIa/FX complex assay, Ab 50 nM [2]: 0.803
A405, TF/FVIIa/FX complex assay, Ab 100 nM [2]: 0.847
% of Normalized, TF/FVIIa/FX complex assay, Ab 1.56 nM [3]: 4.8%
% of Normalized, TF/FVIIa/FX complex assay, Ab 3.13 nM [3]: 5.6%
% of Normalized, TF/FVIIa/FX complex assay, Ab 6.25 nM [3]: 7.8%
% of Normalized, TF/FVIIa/FX complex assay, Ab 12.5 nM [3]: 11.4%
% of Normalized, TF/FVIIa/FX complex assay, Ab 25 nM [3]: 57.7%
% of Normalized, TF/FVIIa/FX complex assay, Ab 50 nM [3]: 94.6%
% of Normalized, TF/FVIIa/FX complex assay, Ab 100 nM [3]: 99.9%
FXa assay % of FXa alone, 2.5 nM Ab, 10 nM TFPI [4]: 7.4%
FXa assay % of FXa alone, 5 nM Ab, 10 nM TFPI [4]: 38.8%
FXa assay OD, 2.5 nM Ab, 10 nM TFPI [4]: 0.0615
FXa assay OD, 5 nM Ab, 10 nM TFPI [4]: 0.321
FXa assay OD, 10 nM Ab, 10 nM TFPI [4]: 0.68
FXa assay OD, 20 nM Ab, 10 nM TFPI [4]: 0.678
Kd [5]: 8.19 pM
B1: clone 12 (antibody, V domains shown)
VH: EVQLVESGGGLVKPGGSLRLSCAASGFTFSSYAMNWVRQAPGKGLEWVGTITTGGSHTYYADSVEGRFTISRDNAKNSLYLQMNSLRAEDTAVYYCARQDGHFLMDYWGQGTLVTVSS
VL: DVVMTQTPLSLPVTLGQPASISCKSSPSLLDIDGKTYLNWLQQRPGQSPKRLIYLVSKLDSGVPDRFTGSGSGTDFTLKISRVEAEDVGVYYCWQGTHFPFTFGQGTKVEIKR
notes: human IgG4/kappa IgG as purified; also called No. 12 antibody

effect of inhibiting TFPI, FXa activity assay, Ab 10 nM [1]: ~82%
effect of inhibiting TFPI, FXa activity assay, Ab 20 nM [1]: ~87%
A405, TF/FVIIa/FX complex assay, Ab 1.56 nM [2]: 0.043
A405, TF/FVIIa/FX complex assay, Ab 3.13 nM [2]: 0.051
A405, TF/FVIIa/FX complex assay, Ab 6.25 nM [2]: 0.059
A405, TF/FVIIa/FX complex assay, Ab 12.5 nM [2]: 0.091
A405, TF/FVIIa/FX complex assay, Ab 25 nM [2]: 0.509
A405, TF/FVIIa/FX complex assay, Ab 50 nM [2]: 0.843
A405, TF/FVIIa/FX complex assay, Ab 100 nM [2]: 0.859
% of Normalized, TF/FVIIa/FX complex assay, Ab 1.56 nM [3]: 5.1%
% of Normalized, TF/FVIIa/FX complex assay, Ab 3.13 nM [3]: 6%
% of Normalized, TF/FVIIa/FX complex assay, Ab 6.25 nM [3]: 6.9%
% of Normalized, TF/FVIIa/FX complex assay, Ab 12.5 nM [3]: 10.7%
% of Normalized, TF/FVIIa/FX complex assay, Ab 25 nM [3]: 60%
% of Normalized, TF/FVIIa/FX complex assay, Ab 50 nM [3]: 99.4%
% of Normalized, TF/FVIIa/FX complex assay, Ab 100 nM [3]: 101%
FXa assay % of FXa alone, 2.5 nM Ab, 10 nM TFPI [4]: 7.3%
FXa assay % of FXa alone, 5 nM Ab, 10 nM TFPI [4]: 46.2%
FXa assay OD, 2.5 nM Ab, 10 nM TFPI [4]: 0.0605
FXa assay OD, 5 nM Ab, 10 nM TFPI [4]: 0.382
FXa assay OD, 10 nM Ab, 10 nM TFPI [4]: 0.676
FXa assay OD, 20 nM Ab, 10 nM TFPI [4]: 0.72
Kd [5]: 9.47 pM
B2: clone 1202 (antibody, V domains shown)
VH: B1 VH with H57Y, E65D, Q82K, H102N
VL: B1 VL with P27Q
notes: scFv on yeast at selection; human IgG4/kappa IgG as purified; also called No. 1202 antibody
